Laboratory results from patent publication US20180134765A1 (AVIDBIOTICS, published 2018).

T1: human NKG2D-Fc (human, UniProt P26718 78-216, limits assumed)
T1 construct: also called natural NKG2D-Fc; not shown: Fc part
T1 sequence (looked up): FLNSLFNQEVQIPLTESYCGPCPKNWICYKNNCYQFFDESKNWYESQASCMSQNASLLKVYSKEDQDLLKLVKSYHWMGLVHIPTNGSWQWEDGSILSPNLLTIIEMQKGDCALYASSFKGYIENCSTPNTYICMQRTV

T2: NKG2D on NKL cells (human, UniProt P26718 1-216)
T2 sequence (looked up): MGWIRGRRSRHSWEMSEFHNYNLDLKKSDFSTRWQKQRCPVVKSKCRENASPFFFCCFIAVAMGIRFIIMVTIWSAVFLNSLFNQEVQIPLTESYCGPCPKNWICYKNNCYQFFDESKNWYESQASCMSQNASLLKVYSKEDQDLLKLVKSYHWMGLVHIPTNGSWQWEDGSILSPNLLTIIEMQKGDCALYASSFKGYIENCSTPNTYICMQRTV

T3: His-avitag-natural NKG2D (human, biotin on the avitag sequence (BirA))
T3 construct: also called natural NKG2D ectodomain; wild type NKG2D
T3 chain: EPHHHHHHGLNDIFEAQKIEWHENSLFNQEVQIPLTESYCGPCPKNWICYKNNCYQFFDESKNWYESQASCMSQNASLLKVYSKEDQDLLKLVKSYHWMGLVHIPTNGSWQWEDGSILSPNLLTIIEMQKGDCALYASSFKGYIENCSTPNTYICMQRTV

T4: murine NKG2D-Fc (mouse, UniProt O54709 94-232, limits assumed)
T4 construct: also called mouse NKG2D-Fc; not shown: Fc part; not described
T4 sequence (looked up): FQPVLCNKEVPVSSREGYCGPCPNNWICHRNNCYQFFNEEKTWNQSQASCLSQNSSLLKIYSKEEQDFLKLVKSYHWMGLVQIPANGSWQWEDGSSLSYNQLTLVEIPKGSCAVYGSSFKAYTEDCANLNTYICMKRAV

T5: FGFR3 (plate-coated) (UniProt P22607 23-375)
T5 construct: also called Fibroblast Growth Factor Receptor 3
T5 sequence (looked up): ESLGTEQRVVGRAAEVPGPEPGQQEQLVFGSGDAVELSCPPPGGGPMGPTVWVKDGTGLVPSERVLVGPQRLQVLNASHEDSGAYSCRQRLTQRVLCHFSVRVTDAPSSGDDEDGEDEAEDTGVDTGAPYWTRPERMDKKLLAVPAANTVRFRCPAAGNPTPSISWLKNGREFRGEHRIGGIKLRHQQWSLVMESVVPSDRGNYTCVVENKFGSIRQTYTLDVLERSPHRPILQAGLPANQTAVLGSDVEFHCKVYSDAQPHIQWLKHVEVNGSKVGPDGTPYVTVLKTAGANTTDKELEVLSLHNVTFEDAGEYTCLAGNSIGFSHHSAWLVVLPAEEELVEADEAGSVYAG


Legend:
[1] = target: T1, human NKG2D-Fc; test: ELISA: protein captured on FGFR3 detected with NKG2D-Fc
[2] = target: T2, NKG2D on NKL cells; test: cell-based or functional assay
[3] = target: T3, His-avitag-natural NKG2D; test: biolayer interferometry (Octet), biotinylated natural NKG2D ectodomain on the surface, 100 nM fusion protein; run B
[4] = target: T4, murine NKG2D-Fc; test: competition ELISA: variant titrated against mouse NKG2D-Fc binding to plate-coated MICA (competitor), detected with anti-Fc-HRP
[5] = target: T5, FGFR3 (plate-coated); test: ELISA: FGFR3 coated at 2 ug/ml, protein titrated, bound protein detected with NKG2D-Fc and anti-Fc-HRP

Binder	binding result [1]	NK cell-mediated lysis of FGFR3-expressing P815 target cells (calcein release, NKL cells) [2]	also measured
ULBP3-α3-iFv.2 (designed binder, His-tagged, monomeric, insect cells; also called NKG2DL-α3-iFv.2 (ULBP3)) EPHSLWYNFTIIHLPRHGQQWCEVQSQVDQKNFLSYDCGSDKVLSMGHLEEQLYATDAWGKQLEMLREVGQRLRLELADTELEDFTPSGPLTLQVRMSCECEADGYIRGSWQFSFDGRKFLLFDSNNRKWTVVHAGARRMKEKWEKDSGLTTFFKMVSMRDCKSWLRDFLMHRKKRLEPTAPPMVQVTRSEASGGSGDRVTITCRASQDVSTAVAWYQQKPGKAPKLLIYSASFLYSGVPSRFSGSGSGTDFTLTISSLQPEDFATYYCQQSYTTPPTFGQGTKVEIKGGSSRSSSSGGGGSGGGGEVQLVESGGGLVQPGGSLRLSCAASGFTFTSTGISWVRQAPGKGLEWVGRIYPTNGSTNYADSVKGRFTISADTSKNTAYLQMNSLRAEDTAVYYCARTYGIYDLYVDYTEYVMDYWGQGTLVTVSSGGSSRSSSSGGGGSGGGGDIQMTQSPSSLSASGGSGQITVTCRASGFYPWNITLSWRQDGVSLSHDTQQWGDVLPDGQGTYQTWVATRISQGEEQRFTCYMEHSGQHSTHPVPSGKGSHHHHHH	binds	–	–
ULBP1-α3-iFv.2 (designed binder, His-tagged, monomeric, insect cells; also called NKG2DL-α3-iFv.2 (ULBP1)) EPHCLCYDFIITPKSRPEPQWCEVQGLVDERPFLHYDCVNHKAKAFASLGKKVNVTKTWEEQTETLRDVVDFLKGQLLDIQVENLIPIEPLTLQARMSCEHEAHGHGRGSWQFLFNGQKFLLFDSNNRKWTALHPGAKKMTEKWEKNRDVTMFFQKISLGDCKMWLEEFLMYWEQMLDPTKPPMVQVTRSEASGGSGDRVTITCRASQDVSTAVAWYQQKPGKAPKLLIYSASFLYSGVPSRFSGSGSGTDFTLTISSLQPEDFATYYCQQSYTTPPTFGQGTKVEIKGGSSRSSSSGGGGSGGGGEVQLVESGGGLVQPGGSLRLSCAASGFTFTSTGISWVRQAPGKGLEWVGRIYPTNGSTNYADSVKGRFTISADTSKNTAYLQMNSLRAEDTAVYYCARTYGIYDLYVDYTEYVMDYWGQGTLVTVSSGGSSRSSSSGGGGSGGGGDIQMTQSPSSLSASGGSGQITVTCRASGFYPWNITLSWRQDGVSLSHDTQQWGDVLPDGQGTYQTWVATRISQGEEQRFTCYMEHSGQHSTHPVPSGKGSHHHHHH	binds	–	–
ULBP4-α3-iFv.2 (designed binder, His-tagged, monomeric, insect cells; also called NKG2DL-α3-iFv.2 (ULBP4)) EPHSLCFNFTIKSLSRPGQPWCEAQVFLNKNLFLQYNSDNNMVKPLGLLGKKVYATSTWGELTQTLGEVGRDLRMLLCDIKPQIKTSDPSTLQVEMFCQREAERCTGASWQFATNGEKSLLFDAMNMTWTVINHEASKIKETWKKDRGLEKYFRKLSKGDCDHWLREFLGHWEAMPEPTVSPPMVQVTRSEASGGSGDRVTITCRASQDVSTAVAWYQQKPGKAPKLLIYSASFLYSGVPSRFSGSGSGTDFTLTISSLQPEDFATYYCQQSYTTPPTFGQGTKVEIKGGSSRSSSSGGGGSGGGGEVQLVESGGGLVQPGGSLRLSCAASGFTFTSTGISWVRQAPGKGLEWVGRIYPTNGSTNYADSVKGRFTISADTSKNTAYLQMNSLRAEDTAVYYCARTYGIYDLYVDYTEYVMDYWGQGTLVTVSSGGSSRSSSSGGGGSGGGGDIQMTQSPSSLSASGGSGQITVTCRASGFYPWNITLSWRQDGVSLSHDTQQWGDVLPDGQGTYQTWVATRISQGEEQRFTCYMEHSGQHSTHPVPSGKGSHHHHHH	binds	–	–
α1-α2 variant 16 (ligand) EPHSLRYNLTVLSWDGSVQSGFLTEVHLDGQPFLRCDRQKCRAKPQGQWAEDVLGNKTWDRETRDLTGWGKDLRMTLAHIKDQKEGLHSLQEIRVCEIHEDNSTRSSQHFYYDGELFLSQNLETLEWTMPQSSRAQTLAMNVRNFLKEDAMETDTHYHAMRADCLQELRRYLKSGVVLRRTVPPMVQVTRSEASGGSGDRVTITCRASQDVSTAVAWYQQKPGKAPKLLIYSASFLYSGVPSRFSGSGSGTDFTLTISSLQPEDFATYYCQQSYTTPPTFGQGTKVEIKGGSSRSSSSGGGGSGGGGEVQLVESGGGLVQPGGSLRLSCAASGFTFTSTGISWVRQAPGKGLEWVGRIYPTNGSTNYADSVKGRFTISADTSKNTAYLQMNSLRAEDTAVYYCARTYGIYDLYVDYTEYVMDYWGQGTLVTVSSGGSSRSSSSGGGGSGGGGDIQMTQSPSSLSASGGSGQITVTCRASGFYPWNITLSWRQDGVSLSHDTQQWGDVLPDGQGTYQTWVATRISQGEEQRFTCYMEHSGQHSTHPVPSGKGSHHHHHH	–	~15 fold more killing than WT at 0.78 nM	–
MICwed-Fv (designed binder, His-tagged α1-α2-α3-Fv fusion; also called MICwed-Fv run A; MICwed-Fv run B) EPHSLRYNLTVLSWDGSVQSGFLTEVHLDGQPFLRCDRQKCRAKPQGQWAEDVLGNKTWDRETRDLTGWGKDLRMTLAHIKDQKEGLHSLQEIRVCEIHEDNSTRSSQHFYYDGELFLSQNLETKEWTMPQSSRAQTLAMNVRNFLKEDAMETDTHYHAMHADCLQELRRYLKSGVVLRRTVPPMVQVTRSEASGGSGDRVTITCRASQDVSTAVAWYQQKPGKAPKLLIYSASFLYSGVPSRFSGSGSGTDFTLTISSLQPEDFATYYCQQSYTTPPTFGQGTKVEIKGGSSRSSSSGGGGSGGGGEVQLVESGGGLVQPGGSLRLSCAASGFTFTSTGISWVRQAPGKGLEWVGRIYPTNGSTNYADSVKGRFTISADTSKNTAYLQMNSLRAEDTAVYYCARTYGIYDLYVDYTEYVMDYWGQGTLVTVSSGGSSRSSSSGGGGSGGGGDIQMTQSPSSLSASGGSGQITVTCRASGFYPWNITLSWRQDGVSLSHDTQQWGDVLPDGQGTYQTWVATRISQGEEQRFTCYMEHSGQHSTHPVPSGKGSHHHHHH	–	–	Kd [3]: 15.5 nM; koff [3]: 0.00312 s⁻¹; kon [3]: 201000 M⁻¹ s⁻¹
α1-α2 variant 17 (ligand) EPHSLRYNLTVLSWDGSVQSGFLTEVHLDGQPFLRCDRQKCRAKPQGQWAEDVLGNKTWDRETRDLTLWGKDLRMTLAHIKDQKEGLHSLQEIRVCEIHEDNSTRSSQHFYYDGELFLSQNLETLEWTMPQSSRAQTLAMNVRNFLKEDAMETDTHYHAMRADCLQELRRYLKSGVVLRRTVPPMVQVTRSEASGGSGDRVTITCRASQDVSTAVAWYQQKPGKAPKLLIYSASFLYSGVPSRFSGSGSGTDFTLTISSLQPEDFATYYCQQSYTTPPTFGQGTKVEIKGGSSRSSSSGGGGSGGGGEVQLVESGGGLVQPGGSLRLSCAASGFTFTSTGISWVRQAPGKGLEWVGRIYPTNGSTNYADSVKGRFTISADTSKNTAYLQMNSLRAEDTAVYYCARTYGIYDLYVDYTEYVMDYWGQGTLVTVSSGGSSRSSSSGGGGSGGGGDIQMTQSPSSLSASGGSGQITVTCRASGFYPWNITLSWRQDGVSLSHDTQQWGDVLPDGQGTYQTWVATRISQGEEQRFTCYMEHSGQHSTHPVPSGKGSHHHHHH	–	~15 fold more killing than WT at 0.78 nM	IC50 (read off the curve) [4]: ~1 nM
α1-α2 variant 18 (ligand) EPHSLRYNLTVLSWDGSVQPGFLTEVHLDGQPFLRCDRQKCRAKPQGQWAEDVLGNKTWDRETRDLTLWGKDLRMTLAHIKDQKEGLHSLQEIRVCEIHEDNSTRSSQHFYYDGELFLSQNLETLEWTMPQSSRAQTLAMNVRNFLKEDAMETDTHYHAMRADCLQELRRYLKSGVVLRRTVPPMVQVTRSEASGGSGDRVTITCRASQDVSTAVAWYQQKPGKAPKLLIYSASFLYSGVPSRFSGSGSGTDFTLTISSLQPEDFATYYCQQSYTTPPTFGQGTKVEIKGGSSRSSSSGGGGSGGGGEVQLVESGGGLVQPGGSLRLSCAASGFTFTSTGISWVRQAPGKGLEWVGRIYPTNGSTNYADSVKGRFTISADTSKNTAYLQMNSLRAEDTAVYYCARTYGIYDLYVDYTEYVMDYWGQGTLVTVSSGGSSRSSSSGGGGSGGGGDIQMTQSPSSLSASGGSGQITVTCRASGFYPWNITLSWRQDGVSLSHDTQQWGDVLPDGQGTYQTWVATRISQGEEQRFTCYMEHSGQHSTHPVPSGKGSHHHHHH	–	~15 fold more killing than WT at 0.78 nM	IC50 (read off the curve) [4]: ~1 nM
MICA-α3-iFv.1 (designed binder, His-tagged, monomeric, made in insect cells; also called sMICA-α3-iFv.1) EPHSLRYNLTVLSWDGSVQSGFLTEVHLDGQPFLRCDRQKCRAKPQGQWAEDVLGNKTWDRETRDLTGNGKDLRMTLAHIKDQKEGLHSLQEIRVCEIHEDNSTRSSQHFYYDGELFLSQNLETKEWTMPQSSRAQTLAMNVRNFLKEDAMKTKTHYHAMHADCLQELRRYLKSGVVLRRTVPPMVQVTRSEASGDRVTITCRASQDVSTAVAWYQQKPGKAPKLLIYSASFLYSGVPSRFSGSGSGTDFTLTISSLQPEDFATYYCQQSYTTPPTFGQGTKVEIKGGSSRSSSSGGGGSGGGGEVQLVESGGGLVQPGGSLRLSCAASGFTFTSTGISWVRQAPGKGLEWVGRIYPTNGSTNYADSVKGRFTISADTSKNTAYLQMNSLRAEDTAVYYCARTYGIYDLYVDYTEYVMDYWGQGTLVTVSSGGSSRSSSSGGGGSGGGGDIQMTQSPSSLSASGQITVTCRASGFYPWNITLSWRQDGVSLSHDTQQWGDVLPDGQGTYQTWVATRISQGEEQRFTCYMEHSGQHSTHPVPSGKGSHHHHHH	binds	–	EC50 (read off the curve) [5]: ~1 nM
